Reference: patent US20190382500A1 (Novartis, published 2019)
Residue numbers refer to the chain shown, from its start.

Target: T1, human recombinant (r)BCMA_Fc-AF647 (human, UniProt Q02223 1-54, AF647 fluorescent label (site not stated))
T1 construct: Staining reagent for CAR detection by flow cytometry; not shown: Fc part
T1 sequence (looked up): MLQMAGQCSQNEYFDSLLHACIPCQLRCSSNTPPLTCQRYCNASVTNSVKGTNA
Assay: flow cytometry, rBCMA_Fc-AF647 staining of CAR-transduced primary human T cells
From the text: The following 8 CARs were chosen for analysis of CAR expression, stability and efficacy in primary T cells: R1B6, R1F2, RIGS, PI61, B61-10, B61-02, Hy03, and Hy52. BCMA CAR T cells were generated by starting with blood from healthy apheresed donors whose T cells (CD4+ and CD8+ lymphocytes) were obtained by negative selection for CD3+ T cells. These cells were activated by the addition of CD3/CD28 beads (Dynabeads® Human T-Expander CD3/CD28, Thermo Fisher Scientific) at a ratio of 1:3 (T cell to bead) in T cell medium (RPMI1640, 10% heat-inactivated fetal calf serum (FCS), 2 mM L-glutamine, 1× Penicillin/Streptomycin, 100 μM non-essential amino acids, 1 mM Sodium Pyruvate, 10 mM Hepes, and 55 μM 2-mercaptoethanol). T cells were cultured at 0.5×10⁶ T cells in 1 mL medium per well of a 24-well plate at 37° C., 5% CO₂. After 24 hours, when T cells were blasting, T cells were transduced with BCMA CAR virus at a multiplicity of infection (MOI) of 5. T cells began to divide in a logarithmic growth pattern, which was monitored by measuring the cell counts per mL, and T cells were diluted in fresh medium every two days and de-beaded and harvested for further analyses at day 9. Aliquots of T cells were stained to measure CAR expression by flow cytometry at day 5 and 9 on a FACS Fortessa (BD). All BCMA CAR T cells were produced under research grade (i.e., not clinical grade) manufacturing conditions.
The BCMA-CAR surface expression and its stability was assessed by measuring CAR % and MFI (mean fluorescence intensity) at day 5 and day 9 using flow cytometry analyses of rBCMA_Fc-AF647 stained cells (FIG. 2 and Table 17).

B1: Hy52 BCMA CAR (other)
chain: EVQLVESGGGLVKPGGSLRLSCAASGFTFSSFRMNWVRQAPGKGLEWVSSISSSSSYIYYADSVKGRFTISRDNAKNSLYLQMNSLRAEDTAVYYCARWLSYYGMDVWGQGTTVTVSSGGGGSGGGGSGGGGSGGGGSDIVMTQTPLSLPVTPGEPASISCRSSQSLLDSDDGNTYLDWYLQKPGQSPQLLIYTLSFRASGVPDRFSGSGSGTDFTLKIRRVEAEDVGVYYCMQRIGFPITFGQGTRLEIKTTTPAPRPPTPAPTIASQPLSLRPEACRPAAGGAVHTRGLDFACDIYIWAPLAGTCGVLLLSLVITLYCKRGRKKLLYIFKQPFMRPVQTTQEEDGCSCRFPEEEEGGCELRVKFSRSADAPAYQQGQNQLYNELNLGRREEYDVLDKRRGRDPEMGGKPRRKNPQEGLYNELQKDKMAEAYSEIGMKGERRRGKGHDGLYQGLSTATKDTYDALHMQALPPR
notes: Chimeric antigen receptor expressed on JNL cells or primary human T cells after lentiviral transduction
Q: Which “CAR % on T cells, Day 5” value does the source give for B1 here?
A: 35.1%

Q: And the “CAR % on T cells, Day 9” value?
A: 36.1%

Q: And the “CAR MFI on T cells, Day 5” value?
A: 33700 MFI

Q: What about the “CAR MFI on T cells, Day 9” value of the same binder?
A: 2860 MFI

B2: B61-02 BCMA CAR (other)
chain: QVQLVESGGGVVQPGRSLRLSCAASGFTFSSYGMHWVRQAPGKGLEWVAVISYKGSNKYYADSVKGRFTISRDNSKNTLYLQMNSLRAEDTAVYYCGGSGYALHDDYYGLDVWGQGTLVTVSSGGGGSGGGGSGGGGSGGGGSQSALTQPASVSGSPGQSITISCTGTSSDVGGYNYVSWYQQHPGKAPKLMIYEVSNRLRGVSNRFSGSKSGNTASLTISGLQAEDEADYYCSSYTSSSALYVFGSGTKVTVLTTTPAPRPPTPAPTIASQPLSLRPEACRPAAGGAVHTRGLDFACDIYIWAPLAGTCGVLLLSLVITLYCKRGRKKLLYIFKQPFMRPVQTTQEEDGCSCRFPEEEEGGCELRVKFSRSADAPAYQQGQNQLYNELNLGRREEYDVLDKRRGRDPEMGGKPRRKNPQEGLYNELQKDKMAEAYSEIGMKGERRRGKGHDGLYQGLSTATKDTYDALHMQALPPR
notes: as for B1
Q: What does the source list for B2?
A: CAR % on T cells, Day 5: 33.5%; CAR % on T cells, Day 9: 23.6%; CAR MFI on T cells, Day 5: 29100 MFI; CAR MFI on T cells, Day 9: 3470 MFI

B3: B61-10 BCMA CAR (other)
chain: B2 chain with A241T
notes: as for B1
Q: How did the “CAR % on T cells, Day 5” value turn out when B3 was run?
A: 41.1%

Q: What about the “CAR % on T cells, Day 9” value of the same binder?
A: 30.3%

Q: What about the “CAR MFI on T cells, Day 5” value of the same binder?
A: 27300 MFI

Q: What about the “CAR MFI on T cells, Day 9” value of the same binder?
A: 3290 MFI

B4: PI61 BCMA CAR (other)
chain: QVQLQESGGGVVQPGRSLRLSCAASGFTFSSYGMHWVRQAPGKGLEWVAVISYDGSNKYYADSVKGRFTISRDNSKNTLYLQMNSLRAEDTAVYYCGGSGYALHDDYYGLDVWGQGTLVTVSSGGGGSGGGGSGGGGSQSALTQPASVSGSPGQSITISCTGTSSDVGGYNYVSWYQQHPGKAPKLMIYDVSNRPSGVSNRFSGSKSGNTASLTISGLQAEDEADYYCSSYTSSSTLYVFGSGTKVTVLTTTPAPRPPTPAPTIASQPLSLRPEACRPAAGGAVHTRGLDFACDIYIWAPLAGTCGVLLLSLVITLYCKRGRKKLLYIFKQPFMRPVQTTQEEDGCSCRFPEEEEGGCELRVKFSRSADAPAYQQGQNQLYNELNLGRREEYDVLDKRRGRDPEMGGKPRRKNPQEGLYNELQKDKMAEAYSEIGMKGERRRGKGHDGLYQGLSTATKDTYDALHMQALPPR
notes: Chimeric antigen receptor expressed on JNL cells or primary human T cells after lentiviral transduction; also called P161
Q: Which results are given for B4?
A: CAR % on T cells, Day 5: 47.4%; CAR % on T cells, Day 9: 42.3%; CAR MFI on T cells, Day 5: 24400 MFI; CAR MFI on T cells, Day 9: 2100 MFI

B5: Hy03 BCMA CAR (other)
chain: EVQLVESGGGLVQPGGSLRLSCAASGFTFSGFWMSWVRQAPGKGLEWVANIKQDGSEKYYVDSVRGRFTISRDNAKNSLYLQMNSLRAEDTAVYYCARALDYYGMDVWGQGTTVTVSSGGGGSGGGGSGGGGSGGGGSDIVMTQTPLSLPVTPGEPASISCRSSQSLLDSDDGNTYLDWYLQKPGQSPRLLIYTLSYRASGVPDRFSGSGSGTDFTLKISRVEAEDVGLYYCTQRLEFPSITFGQGTRLEIKTTTPAPRPPTPAPTIASQPLSLRPEACRPAAGGAVHTRGLDFACDIYIWAPLAGTCGVLLLSLVITLYCKRGRKKLLYIFKQPFMRPVQTTQEEDGCSCRFPEEEEGGCELRVKFSRSADAPAYQQGQNQLYNELNLGRREEYDVLDKRRGRDPEMGGKPRRKNPQEGLYNELQKDKMAEAYSEIGMKGERRRGKGHDGLYQGLSTATKDTYDALHMQALPPR
notes: as for B1
Q: B5 was tested. Which “CAR % on T cells, Day 5” value did it give?
A: 33.7%

Q: What about the “CAR % on T cells, Day 9” value of the same binder?
A: 18.1%

Q: And the “CAR MFI on T cells, Day 5” value?
A: 9460 MFI

Q: And the “CAR MFI on T cells, Day 9” value?
A: 929 MFI
